The values that follow come from article PMC8130932 (PLoS Pathogens, 2021).

Test [1] concerns the target T1, SARS-CoV-2 RBD (amino acids 340-538) on MDCK-SIAT1 cells (SARS-CoV-2 (so in the source)).
T1 construct: also called MDCK-RBD; source: MDCK-SIAT1, stably transduced (lentiviral vector), on the cell surface
The test is described as follows: flow cytometry on cells. The settings on record: one partner purified. On the technique in general: A flow cytometer gives signals particle by particle.

Test [2] has as its target T2, SARS-CoV-2 NTD on MDCK-SIAT1 cells (SARS-CoV-2 (so in the source)).
T2 construct: also called MDCK-NTD
The experiment in a line: flow cytometry on cells. The following applies: one partner purified.

Test [3] addresses T3, SARS-CoV-2 spike receptor-binding domain, recombinant (SARS-CoV-2, reference sequence, UniProt P0DTC2).
T3 construct: also called RBD; source: bought: Sino Biologicals, baculovirus-insect cells
The test is described as follows: ELISA. In general terms: ELISA stands for enzyme-linked immunosorbent assay.

The target of test [4] is T4, SARS-CoV-2 spike S2 subunit, recombinant (SARS-CoV-2, reference sequence, UniProt P0DTC2).
T4 construct: source: bought: Sino Biologicals, baculovirus-insect cells
The experiment in a line: ELISA.

B1: FD 11C (antibody, V domains shown)
VH: EVQLLESGPGLVKPSETLSLTCTVSGGSISSSSYYWGWIRQPPGKGLEWIGSIYYSGSTYYNPSLKSRVTISVDTSKNQFSLKLSSVTAADTAVYYCAREYYYGSETKKYYYYYGMDVWGQGTTVTVSS
VL: not shown
notes: source: HEK293T, transfected; culture supernatant or purified
Regarding B1, the binding result in test [1] and in test [2] was “no binding” in each case.

B2: FD 5E (antibody, V domains shown)
VH: EVQLVESGGVVVQPGGSLRLSCAASGFTFDDYAMHWVRQAPGKGLEWVSLISWDGGSTYYADSVKGRFTISRDNSKNSLYLQMNSLRAEDTALYYCAKDSVRFRYYYGMDVWGQGTTVTVSS
VL: EIVLTQSPATLSLSPGERATLSCRASQSVSSYLAWYQQKPGQAPRLLIYDASNRATGIPARFSGSGSGTDFTLTISSLEPEDFAVYYCQQRSNWPLTFGPGTKVDIK
notes: as for B1
Regarding B2, the binding result in test [1] and in test [2] was “no binding” throughout.

B3: EW 9B (antibody, V domains shown)
VH: EVQLVQSGAEVKKPGASVKVSCKASGYTFTSYYMHWVRQAPGQGLEWMGIINPSGGSTSYAQKFQGRVTMTRDTSTSTVYMELSSLRSEDTAVYYCAREDGVVPAANLMISLEDYYYYGMDVWGQGTTVTVSS
VL: EIVLTQSPATLSLSPGERATLSCRASQSVSSYLAWYQQKPGQAPRLLIYDASNRATGIPARFSGSGSGTDFTLTISSLEPEDFAVYYCQQRSNWPLTFGGGTKVDIK
notes: as for B1
Consider B3, for which the binding result in test [1] and in test [2] was “no binding” each time.

B4: EY 6A (antibody, V domains shown)
VH: EVQLVESGGGVVQPGRSLRLSCAASAFTFSSYDMHWVRQAPGKGLEWVAVISYDGSNKYYADSVKGRFTISRDNSKNTLYLQMNSLRAEDTAVYYCAKDGGKLWVYYFDYWGQGTLVTVSS
VL: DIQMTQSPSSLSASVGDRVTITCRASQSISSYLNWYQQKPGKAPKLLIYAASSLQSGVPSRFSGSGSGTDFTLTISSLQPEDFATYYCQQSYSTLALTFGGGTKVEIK
notes: as for B1
In the case of B4, the OD450 in test [3] came to 1.18 OD450. In test [1], the binding result is given as “binds”.

B5: FM 1A (antibody, V domains shown)
VH: EVQLLESGGGVVQPGRSLRLSCAASGFTFSSYGMHWVRQAPGKGLEWVAVIWYDGSNKYYADSVKGRFTISRDNSKNTLYLQMNSLRAEDTAVYYCAREGAVGATRGFDYWGQGTLVTVSS
VL: SYELTQPPSVSVAPGQTARITCGGNNIGSKSVHWYQQKPGQAPVLVVYDDSDRPSGIPERFSGSNSGNTATLTISRVEAGDEADYYCQVWDSSSDQGVFGGGTKLTVL
notes: as for B1
Turning to B5, in test [4], the OD450 came out at 0.88 OD450.

B6: FN 8C (antibody, V domains shown)
VH: QVQLVESGGGVVQPGRSLRLSCAASGFTFSSYGMHWVRQAPGKGLEWVAVISYDGSNKYYADTVKGRFTISRDNSKNTLYLQMNSLRAEDTAVYYCARERTYYDILTGYRHYYGMDVWGQGTTVTVSS
VL: SYELTQPPSVSVAPGQTARITCGGNNIGSKSVHWYQQKPGQAPVLVVYDDSDRPSGIPERFSGSNSGNTATLTISRVEAGDEADYYCQVWDSSSDHWVFGGGTKLTVL
notes: as for B1
On to B6, for which the binding result in test [1] and in test [2] was “no binding” in each case.

B7: FG 12C (antibody, V domains shown)
VH: EVQLVESGGGLVQPGRSLRLSCAASGFTFDDYAMHWVRQAPGKGLEWVSGISWNSGSIGYADSVKGRFTISRDNAKNSLYLQMNSLRAEDTALYYCAKDMRVHDYGDYYFDYWGQGTLVTVSS
VL: SYELTQPPSVSVAPGKTARITCGGNNIGSKSVHWYQQKPGQAPVLVIYYDSDRPSGIPERFSGSNSGNTATLTISRVEAGDEADYYCQVWDSSSDHPVFGGGTKLTVL
notes: as for B1
With B7, the binding result in test [1] and in test [2] was “no binding” in each case.

B8: FD 7D (antibody, V domains shown)
VH: EVQLVESGAEVKKPGESLRISCKGSGYSFTSYWISWVRQMPGKGLEWMGRIDPSDSYTNYSPSFQGHVTISADKSISTAYLQWSSLKASDTAMYYCARHSDCSSTSCYFVDAFDIWGQGTMVTVSS
VL: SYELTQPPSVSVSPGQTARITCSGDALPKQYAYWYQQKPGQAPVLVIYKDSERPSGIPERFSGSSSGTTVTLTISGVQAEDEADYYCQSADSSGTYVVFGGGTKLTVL
notes: as for B1
B8: the binding result in test [1] and in test [2] was “no binding” each time.

B9: FG 7A (antibody, V domains shown)
VH: EVQLVESGGGVVQPGRSLRLSCAASGFTFSSYAMHWVRQAPGKGLEWVAVISYDGSNKYYADSVKGRFTISRDNSKNTLYLQMNSLRAEDTAVYYCARSHSGSYRASLDYWGQGTTVTVSS
VL: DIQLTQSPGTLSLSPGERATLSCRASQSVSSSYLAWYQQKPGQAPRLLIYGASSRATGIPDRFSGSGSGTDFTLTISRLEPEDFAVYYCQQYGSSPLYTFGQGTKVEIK
notes: as for B1
For B9, the OD450 in test [4] was 1.05 OD450.

B10: FD 11D (antibody, V domains shown)
VH: EVQLVESGGGVVQPGRSLRLSCAASGFTFSSYGMHWVRQAPGKGLEWVAVISYDGSNKYYADSVKGRFTISRDNSKNTLYLQMNSLRAEDTAVYYCAKEGAGSGWYRHHKPGYYFDYWGQGTLVTVSS
VL: not shown
notes: as for B1
With B10, the binding result in test [1] was “no binding”.

B11: FI 1C (antibody, V domains shown)
VH: EVQLVESGGGLVKPGGSLRLSCAASGFTFSDYYMSWIRQAPGKGLEWVSYISSSGSTIYYADSVKGRFTISRDNAKNSLYLQMNSLRAEDTAVYYCARRSNRFLIAFDIWGQGTMVTVSS
VL: QSALTQPASVSGSPGQTITISCTGTSSDVGGYNYVSWYQQHPGKAPKLMIYEVSNRPSGVSNRFSGSKSGNTASLTISGLQAEDEADYYCSSYTSSSTLVVFGGGTKLTVP
notes: as for B1
As to B11, in test [3], the OD450 amounted to 1.22 OD450. In addition, the binding result in test [1] is given as “binds”.

B12: FM 7B (antibody, V domains shown)
VH: EVQLVQSGAEVKKPGASVKVSCKASGYTFTSYAMHWVRQAPGQRLEWMGWINTGNGNTKYSQKFQGRVTITRDTSASTAYMELSSLRSEDTAVYYCARDPTYCSSTSCYPFSWFDPWGQGTLVTVSS
VL: NFMLTQPPSVSVAPGQTARITCGGNNIGSKSVHWYQQKPGQAPVLVVYDDSDRPSGIPERFSGSNSGNTATLTISRVEAGDEADYYCQVWDSTGDHSWVFGGGTKLTVL
notes: as for B1
B12: the OD450 in test [3] was 1.27 OD450. Moreover, the binding result in test [1] is recorded as “binds”.

B13: FI 4A (antibody, V domains shown)
VH: EVQLVESGGGLVKPGGSLRLSCAASGFTFSRFSMNWVRQAPGKGLEWVSSISSSGSYIYFADSVKGRFTISRDNAKNSLYLQMNSLRAEDTAIYYCATYLFGDSHTYWGQGTLVTVSS
VL: QSVLTQPHSVSESPGKTVTISCTGSSGSIASNYVQWYQQRPGSAPTTVIYEDNQRPSGVPDRFSGSIDSSSNSASLTISGLKTEDEADYYCQSYDSSNLHWVFGGGTKLTVL
notes: as for B1
On to B13, for which the OD450 in test [3] came out at 1.12 OD450. Moreover, in test [1], the binding result is reported as “binds”.

B14: FN 12A (antibody, V domains shown)
VH: QVQLVQSGAEVKKPGSSVKVSCKASGGTFSSYAISWVRQAPGQGLEWMGRIIPILGIANYAQKFQGRVTITADKSTSTAYMELSSLRSEDTAVYYCARSGCSSTSCPSNLYYYYYGMDVWGQGTTVTVSS
VL: QSVLTQPPSVSAAPGQKVTISCSGSSSNIGNNYVSWYQQLPGTAPKLLIYDNNKRPSGIPDRFSGSKSGTSATLGITGLQTGDEADYYCGTWDSSLSALVFGGGTKLTVL
notes: as for B1
For B14, in test [3], the OD450 was determined as 1.33 OD450. Also, the binding result in test [1] is listed as “binds”; in test [2], “no binding”.

B15: EZ 7A (antibody, V domains shown)
VH: EVQLVESGAEVKKPGESLKISCKGSGYSFTSYWIGWVRQMPGKGLEWMGIIYPGDSDTRYSPSFQGQVTISADKSISTAYLQWSSLKASDTAMYYCARGWVYRGFPYYGMDVWGQGTMVTVSS
VL: QSALTQPRSVSGSPGQSVTISCTGTSSDVGGYNYVSWYQQHPGKAPKLMIYDVSKRPSGVPDRFSGSKSGNTASLTISGLQAEDEADYYCCSYAGSYTLVFGGGTKLTVL
notes: as for B1
As for B15, in test [3], the OD450 came out at 1.12 OD450. Further, in test [1], the binding result was “binds”.

B16: FI 3A (antibody, V domains shown)
VH: EVQLLESGGGLIQPGGSLRLSCAASGFTVSSNYMSWVRQAPGKGLEWVSVIYSGGSTYYADSVKGRFTISRDNSKNTLYLQMNSLRAEDTAVYYCARDHVRPGMNIWGQGTMVTVSS
VL: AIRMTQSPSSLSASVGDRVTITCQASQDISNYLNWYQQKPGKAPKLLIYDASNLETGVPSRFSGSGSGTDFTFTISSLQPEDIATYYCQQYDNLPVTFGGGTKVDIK
notes: as for B1
In the case of B16, the OD450 in test [3] stood at 1.12 OD450. For the same molecule, in test [1], the binding result is reported as “binds”.

B17: FD 11A (antibody, V domains shown)
VH: EVQLVESGGGVVQPGRSLRLSCAASGFTFSSYGMHWVRQAPGKGLEWVAVIWYDGSNKYYADSVKGRFTISRDNSKNTLYLQMNSLRAEDTAVYYCAKGPDILTGYYNYYYYGMDVWGQGTMVTVSS
VL: QSVLTQPPSVSGAPGQRVTISCTGSSSNIGAGYDVHWYQQLPGTAPKLLIYGNSNRPSGVPDRFSGSKSGTSASLAITGLQAEDEADYYCQSYDSSLSGFYVVFGGGTKLTVL
notes: as for B1
Turning to B17, in test [3], the OD450 was 1.17 OD450. The binding result in test [1] is on record as “binds”.

B18: FJ 10B (antibody, V domains shown)
VH: QVQLVQSGAEVKKPGESLRISCKGSGYSFTSYWISWVRQMPGKGLEWMGRIDPSDSYTNYSPSFQGHVTISADKSISTAYLQWSSLKASDTAMYYCARLDPRYGPDYYGMDVWGQGTTVTVSS
VL: AIRMTQSPSSLSASVGDRVTITCRASQSISSYLNWYQQKPGKAPKLLIHAASSLQSGVPSRFSGSGSGTDFTLTMSSLQPEDFATYYCQQSYSTPLTFGGGTKVEIR
notes: as for B1
Regarding B18, the OD450 in test [3] came out at 1.22 OD450. Further, the binding result in test [1] was “binds”.

B19: FD 7C (antibody, V domains shown)
VH: QLQLQESGPGLVKPSETLSLTCTVSGGSISSYYWSWIRQPPGKGLEWIGYIYYSGSTNYNPSLKSRVTISVDTSKNQFSLKLSSVTAADTAVYYCARDYRFGELFGRFAWFDPWGQGTLVTVSS
VL: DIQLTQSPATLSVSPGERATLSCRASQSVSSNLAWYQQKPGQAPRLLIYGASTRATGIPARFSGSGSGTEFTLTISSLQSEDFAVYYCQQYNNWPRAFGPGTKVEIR
notes: as for B1
On to B19, for which the binding result is reported as “no binding” in test [1] and “binds” in test [2].

B20: FD 5D (antibody, V domains shown)
VH: EVQLVESGGGLVQPGGSLRLSCAASGFTFSSYSMNWVRQAPGKGLEWVSYISSSSSTIYYADPVKGRFTISRDNAKNSLYLQMNSLRAEDTAVYYCASPGGITAAGTSVLFGYYGMDVWGQGTMVTVSS
VL: not shown
notes: as for B1
For B20, the OD450 in test [3] worked out at 1.19 OD450. The binding result in test [1] is “binds”.
